Assay [1] concerns the target T1, human epidermal growth factor receptor 2 (HER2), membrane-bound on cells (human, UniProt P04626 23-1255). Briefly: cell-based or functional assay.
Assay [2] has as its target T2, HER2ECDHis (human, UniProt P04626 23-653, biotinylated in the cross-block ELISA (sites not given)).
T2 construct: range 1-653; expressed in HEK-293F; also called soluble HER2; biotinylated HER2ECDHis
Briefly: ELISA; competitor C1. In general terms: An ELISA detects its analyte on a solid surface through an enzyme-linked reagent.

Assay [3] has as its target T2, HER2ECDHis. Briefly: ELISA; competitor Tras.
Procedure: (§1) Next, the ELISA wells were washed with PBST (PBS supplemented with 0.05% Tween-20 [Sigma-Aldrich, Zwijndrecht, The Netherlands]) and blocked for one hour at room temperature (RT) with PBSTC (PBST supplemented 2% [v/v] chicken serum [Gibco, Paisley, Scotland]). The ELISA wells were then washed with PBST and incubated for one hour at RT with HER2ECDHis serially diluted in PBSTC (0.25-2 μg/mL in 2-fold dilutions). […] The plate was thereafter washed with PBST and incubated for one hour with 0.1 μg/mL Streptavidin-poly-HRP (Sanquin, Amsterdam, The Netherlands) diluted in PBST. After washing, the reaction was visualized through a 15 minutes incubation with 2,2′-azino-bis (3-ethylbenzothiazoline-6-sulfonic acid) (ABTS: one ABTS tablet diluted in 50 mL ABTS buffer (Roche Diagnostics, Almere, The Netherlands)) at RT protected from light. The colorization was stopped by adding an equal volume of oxalic acid (Sigma-Aldrich, Zwijndrecht, The Netherlands). Fluorescence at 405 nm was measured on a microtiter plate reader (Biotek Instruments, Winooski, USA).
(§2) Each HER2 antibody was coated to the ELISA wells at the sub-optimal dose that was determined as described above. After blocking of the ELISA wells, the wells were incubated with the predetermined concentration of 1 μg/mL biotinylated HER2ECDHis in the presence or absence of an excess of a second (competitor) HER2 antibody. The ELISA was then performed as described above. […] Percentage competition was then determined as 100 minus the percentage of inhibition.
Assay [4] addresses T1, human epidermal growth factor receptor …. Briefly: cell-based or functional assay. This is another data set of the same source.
In assay [5] the target is T2, HER2ECDHis. Put plainly: ELISA; competitor 060.
Procedure: as §1, §2
Assay [6] deals with T2, HER2ECDHis. Put plainly: ELISA; competitor 006.
Procedure: as §1, §2
Assay [7] addresses T2, HER2ECDHis. Briefly: ELISA; competitor 059.
Procedure: as §1, §2
The target of assay [8] is T2, HER2ECDHis. Briefly: ELISA; competitor Pert.
Procedure: as §1, §2
The target of assay [9] is T2, HER2ECDHis. Put plainly: ELISA; competitor 111.
Procedure: as §1, §2
For assay [10], the target named is T1, human epidermal growth factor receptor …. Briefly: cell-based or functional assay. This is another data set of the same source.
Assay [11] has as its target T2, HER2ECDHis. Put plainly: ELISA; competitor 005.
Procedure: as §1, §2
For assay [12], the target named is T2, HER2ECDHis. Put plainly: ELISA; competitor 106.
Procedure: as §1, §2
Assay [13] deals with T2, HER2ECDHis. Put plainly: ELISA; competitor F5.
Procedure: as §1, §2

B1: HuMab 060 (antibody, V domains shown)
VH: EVQLVQSGAEVKKPGESLKISCKGSGYRFTSYWIGWVRQMPGKGLEWMGSIYPGDSYTRNSPSFQGQVTISADKSIATAYLQWNSLKASDTAMYYCARHAGDFYYFDGLDVWGQGTTVTVSS
VL: not shown
notes: also called PC1014-060
Consider B1, for which the “EC50, fab-CypHer5E internalization, AU565” value in assay [1] was found to be 0.0362 µg/mL. Also, the “Maximal MFI, fab-CypHer5E internalization, AU565” value in assay [1] was 68200 MFI. Besides, the “% binding vs no competitor” value amounted to 108% in the assay with HER2ECDHis [2]; 106% in the assay with HER2ECDHis [3]; 19% with HER2ECDHis [5]; 6% with HER2ECDHis [6]; 14% with HER2ECDHis [7]; 99% with HER2ECDHis [8]. Further, the “% binding vs no competitor” value with HER2ECDHis [9] is 35%; in the assay with HER2ECDHis [11] it was 30%; in the assay with HER2ECDHis [12] it was 37%; with HER2ECDHis [13], 126%. In addition, the “% cells killed, AU565, anti-kappa-ETA'-conjugated” value in assay [4] is 64.3%. The “EC50 of cell kill, AU565, anti-kappa-ETA'-conjugated” value in assay [4] was determined as 0.0794 µg/mL. Also, the “% cells killed, A431, anti-kappa-ETA'-conjugated” value in assay [10] amounted to 85%. Further, the “EC50 of cell kill, A431, anti-kappa-ETA'-conjugated” value in [10] is ~0.01 µg/mL.

B2: HuMab 005 (antibody, V domains shown)
VH: EVQLVQSGAEVKKPGESLKISCKASGYSFHFYWIGWVRQMPGKGLEWMGSIYPGDSDTRYRPSFQGQVTISADKSISTAYLQWTSLKASDTAIYYCARQRGDYYYFYGMDVWGQGTTVTVSS
VL: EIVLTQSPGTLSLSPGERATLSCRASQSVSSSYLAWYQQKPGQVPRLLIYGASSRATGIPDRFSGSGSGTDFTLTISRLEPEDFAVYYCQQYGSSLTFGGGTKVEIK
notes: also called PC1014-005; TH1014-005
In the case of B2, the “EC50, fab-CypHer5E internalization, AU565” value in [1] turned out to be 0.0214 µg/mL. For the same molecule, the “Maximal MFI, fab-CypHer5E internalization, AU565” value in assay [1] was determined as 95100 MFI. In addition, the “% binding vs no competitor” value with HER2ECDHis [2] is 157%; with HER2ECDHis [3] it was 126%; in the assay with HER2ECDHis [5], 12%; in the assay with HER2ECDHis [6], 15%; with HER2ECDHis [7], 22%; in the assay with HER2ECDHis [8], 115%. The “% binding vs no competitor” value was 32% with HER2ECDHis [9], 18% with HER2ECDHis [11], 54% in the assay with HER2ECDHis [12] and 227% with HER2ECDHis [13]. The “% cells killed, AU565, anti-kappa-ETA'-conjugated” value in [4] came out at 69.7%. Besides, in assay [4], the “EC50 of cell kill, AU565, anti-kappa-ETA'-conjugated” value was found to be 0.0151 µg/mL. Further, the “% cells killed, A431, anti-kappa-ETA'-conjugated” value in assay [10] was 88.5%. In [10], the “EC50 of cell kill, A431, anti-kappa-ETA'-conjugated” value was ~0.0101 µg/mL.

Source of the values: US20170369590A1 (Genmab, published 2017).
